Drawing on FireProtDB (doi:10.1021/bi961660c), this text covers unfolding free energy for 1 protein.

Values joined by “and” are separate entries in the source; they are usually repeats but may differ in a detail not shown here. Identical values can stand only once.

For this series the following is noted: Escherichia coli (strain K12), pH 7, 25 °C, GdnHCl, CD, Tris-HCl 20 mM, reversible: yes, whole UniProt chain shown.

B1: Tryptophan synthase alpha chain wild type, P0A877 (protein)
chain: MERYESLFAQLKERKEGAFVPFVTLGDPGIEQSLKIIDTLIEAGADALELGIPFSDPLADGPTIQNATLRAFAAGVTPAQCFEMLALIRQKHPTIPIGLLMYANLVFNKGIDEFYAQCEKVGVDSVLVADVPVEESAPFRQAALRHNVAPIFICPPNADDDLLRQIASYGRGYTYLLSRAGVTGAENRAALPLNHLVAKLKEYNAAPPLQGFGISAPDQVKAAIDAGAAGAISGSAIVKIIEQHINEPEKMLAALKVFVQPMKAATRS
Consider B1, for which the unfolding free energy amounted to 8.21 kcal/mol. Also, the unfolding free energy (transition: 3) is 4.23 kcal/mol and 4 kcal/mol.
